Target: human FSH receptor (human) (UniProt P23945)
Assay: cell-based or functional assay

human FSH receptor (human), sequence (P23945 18-695): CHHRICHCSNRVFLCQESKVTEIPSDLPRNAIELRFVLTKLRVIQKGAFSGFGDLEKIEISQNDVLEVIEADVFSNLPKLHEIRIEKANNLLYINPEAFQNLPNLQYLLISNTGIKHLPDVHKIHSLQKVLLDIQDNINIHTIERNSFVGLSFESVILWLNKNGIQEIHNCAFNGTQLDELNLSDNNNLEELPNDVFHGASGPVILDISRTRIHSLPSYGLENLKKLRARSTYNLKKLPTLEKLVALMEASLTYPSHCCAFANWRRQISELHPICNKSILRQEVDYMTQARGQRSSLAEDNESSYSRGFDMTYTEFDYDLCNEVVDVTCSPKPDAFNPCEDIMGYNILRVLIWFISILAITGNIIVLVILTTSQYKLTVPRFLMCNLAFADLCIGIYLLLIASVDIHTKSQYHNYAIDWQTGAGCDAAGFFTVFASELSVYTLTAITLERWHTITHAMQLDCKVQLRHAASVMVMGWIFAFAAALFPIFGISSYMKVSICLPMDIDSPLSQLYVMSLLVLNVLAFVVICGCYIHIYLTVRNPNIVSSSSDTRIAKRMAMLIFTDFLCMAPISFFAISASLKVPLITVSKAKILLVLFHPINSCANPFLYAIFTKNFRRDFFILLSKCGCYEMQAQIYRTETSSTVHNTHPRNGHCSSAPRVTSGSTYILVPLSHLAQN

50% effective concentration (EC50) of cAMP production in CHO-FSHR cells: 0.204 nM
in vitro biological activity relative to Gonal-F (cAMP production in CHO-FSHR cells): 50%
Substance: FSH-Fc/Fc heterodimer (from UniProt P01215 25-116; P0DOX5 223-449) (Fc fusion)

From patent publication US20190055295A1
